The values that follow are results of earlier work, collected in article PMC5828189.

This data set has as its target C1q globular head (gC1q) (Homo sapiens) (UniProt P02745).
Chain of UniProt P02745 (P02745 23-245, chain 1 of 3): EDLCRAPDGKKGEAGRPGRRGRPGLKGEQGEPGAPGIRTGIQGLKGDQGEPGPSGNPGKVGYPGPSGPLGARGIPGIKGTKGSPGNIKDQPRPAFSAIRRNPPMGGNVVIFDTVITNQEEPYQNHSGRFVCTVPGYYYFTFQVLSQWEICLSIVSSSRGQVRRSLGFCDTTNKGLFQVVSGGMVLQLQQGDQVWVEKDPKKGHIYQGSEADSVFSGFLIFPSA
Chain of UniProt P02745 (P02746 28-253, chain 2 of 3, further chain): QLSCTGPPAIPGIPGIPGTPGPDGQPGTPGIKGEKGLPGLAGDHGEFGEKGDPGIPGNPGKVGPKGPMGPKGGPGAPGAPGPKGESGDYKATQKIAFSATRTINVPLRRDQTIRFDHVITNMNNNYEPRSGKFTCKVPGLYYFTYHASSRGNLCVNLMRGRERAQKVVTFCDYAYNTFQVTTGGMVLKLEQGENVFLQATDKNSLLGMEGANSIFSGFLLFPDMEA
Chain of UniProt P02745 (P02747 29-245, chain 3 of 3, further chain): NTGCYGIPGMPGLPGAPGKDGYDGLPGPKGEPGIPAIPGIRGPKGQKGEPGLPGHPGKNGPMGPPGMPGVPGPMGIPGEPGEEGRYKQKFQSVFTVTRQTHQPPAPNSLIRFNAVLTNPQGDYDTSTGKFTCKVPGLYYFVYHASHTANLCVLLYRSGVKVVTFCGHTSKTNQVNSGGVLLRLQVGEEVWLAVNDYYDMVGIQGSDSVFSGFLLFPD

As for HABP1/p32/gC1qR (from UniProt Q07021), the Kd is 75 nM.

For orientation: Kd means the constant that tells how readily two partners part at equilibrium.
